Results as given in the supplement of paper PMC7877785.
± gives the uncertainty stated by the source.

Assay: self-splicing fitness, log relative to wild type (ln ratio); higher = more splicing; Tetrahymena group I intron in knt gene, E. coli kanamycin selection, DiMSum; sequences stand for … in CUCUCU…GGAGGGAAAAGUUAUCAGGCAUGCACCUGGUAGCUAGUCUUUAAACCAAUAGAUUGCAUCGGUUUAAAAGGCAAGACCGUCAAAUUGCGGGAAAGGGGUCAACAGCCGUUCAGUACCAAGUCUCAGGGGAAACUUUGAGAUGGCCUUGCAAAGGGUAUGGUAAUAAGCUGACGGACAUGGUCCUAACCACGCAGCCAAGUCCUAAGUCAACAGAUCUUCUGUUGAUAUGGAUGCAGUUCACAGACUAAAUGUCGGUCGGGGAAGAUGUAUUCUUCUCAUAAGAUAUAGUCGGACCUCUCCUUAAUGGGAGCUAGCGGAUGAAGUGAUGCAACACUGGAGCCGCUGGGAACUAAUUUGUAUGCGAAAGUAUAUUGAUUAGUUUUGGAGUACUCGUGGUCG
In short: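 DiMSum derived fitness as the error-weighted combination of fold changes across replicates, kanamycin versus no kanamycin, normalised to wild type. E. coli BL21(DE3) held the library, which randomised all eight P1ex-region intron nucleotides within the knt kanamycin-resistance gene on pET-22b(+). Six replicate transformations grew overnight at 37°C or 30°C on LB agar with or without 25 μg/mL kanamycin, also containing 100 μg/mL carbenicillin, 50 μM IPTG and 0.2% rhamnose, and pooled colonies were amplicon-sequenced on an Illumina HiSeq 2500.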

| Sequence | self-splicing fitness (ln) (30 °C) | self-splicing fitness (ln) (37 °C) |
| --- | --- | --- |
| UAGCAGCAAUAUUACGAAGU | -1.64 ± 0.13 | -1.59 ± 0.3 |
| UAGCAGCAAUAUUACGAAUU | -2.58 ± 0.18 | -2.66 ± 0.24 |
| UAGCAGCAAUAUUACGACCU | -0.287 ± 0.13 | 0.328 ± 0.13 |
| UAGCAGCAAUAUUACGAUAA | -1.07 ± 0.12 | 0.133 ± 0.13 |
| UAGCAGCAAUAUUACGAUCA | 0.112 ± 0.088 | 0.169 ± 0.099 |
| UAGCAGCAAUAUUACGAUGA | -0.884 ± 0.069 | -0.42 ± 0.066 |
| UAGCAGCAAUAUUACGCAAU | -2.82 ± 0.13 | -1.68 ± 0.11 |
| UAGCAGCAAUAUUACGCACC | -0.936 ± 0.16 | -0.423 ± 0.16 |
| UAGCAGCAAUAUUACGCAGA | -1.67 ± 0.14 | -1.33 ± 0.088 |
| UAGCAGCAAUAUUACGCCCC | -1.6 ± 0.23 | -1.56 ± 0.31 |
| UAGCAGCAAUAUUACGCUGA | -2.19 ± 0.15 | -1.71 ± 0.18 |
| UAGCAGCAAUAUUACGCUGG | -2.87 ± 0.13 | -2.45 ± 0.15 |
| UAGCAGCAAUAUUACGGGAU | -4.22 ± 0.39 | -2.7 ± 0.26 |
| UAGCAGCAAUAUUACGGGGC | -3.58 ± 0.21 | -3.17 ± 0.27 |
| UAGCAGCAAUAUUACGGUGU | -3.53 ± 0.15 | -1.84 ± 0.15 |
| UAGCAGCAAUAUUACGUACG | -1.2 ± 0.072 | -0.47 ± 0.1 |
| UAGCAGCAAUAUUACGUGCC | -1.84 ± 0.17 | -1.2 ± 0.21 |
| UAGCAGCAAUAUUACGUUCA | 0.0863 ± 0.062 | 0.0609 ± 0.1 |
| UAGGAGCAAUAUUACGAGAC | -2.26 ± 0.29 | – |
| UAGGAGCAAUAUUACGAGGA | -2.78 ± 0.37 | – |
| UAGGAGCAAUAUUACGAGUG | -3.74 ± 0.33 | -1.43 ± 0.17 |
| UAGGAGCAAUAUUACGAGUU | -3.51 ± 0.27 | -2.48 ± 0.33 |
| UAGGAGCAAUAUUACGAUAG | -4.07 ± 0.28 | -1.95 ± 0.2 |
| UAGGAGCAAUAUUACGAUCG | -1.65 ± 0.16 | -0.888 ± 0.21 |
| UAGGAGCAAUAUUACGCCUG | -3.57 ± 0.47 | -1.23 ± 0.33 |
| UAGGAGCAAUAUUACGCGAC | – | -1.74 ± 0.38 |
| UAGGAGCAAUAUUACGCGGU | -1.52 ± 0.23 | – |

| Sequence | self-splicing fitness (ln) (30 °C) | self-splicing fitness (ln) (37 °C) |
| --- | --- | --- |
| UAGGAGCAAUAUUACGGCUU | -4.37 ± 0.28 | -3.13 ± 0.4 |
| UAGGAGCAAUAUUACGGGUC | -2.64 ± 0.19 | – |
| UAGGAGCAAUAUUACGGUGA | – | -1.08 ± 0.27 |
| UAGGAGCAAUAUUACGGUGU | -3.4 ± 0.3 | -2.9 ± 0.43 |
| UAGGAGCAAUAUUACGUAAC | -4.94 ± 0.41 | -2.48 ± 0.22 |
| UAGGAGCAAUAUUACGUAAG | -3.22 ± 0.16 | -2.01 ± 0.16 |
| UAGGAGCAAUAUUACGUAUG | -3.04 ± 0.22 | -1.71 ± 0.16 |
| UAGGAGCAAUAUUACGUUCG | -0.918 ± 0.2 | -0.576 ± 0.19 |
| UAGGAGCAAUAUUACGUUUA | -2.18 ± 0.27 | -0.145 ± 0.17 |
| UAGUAGCAAUAUUACGAACA | – | -0.405 ± 0.42 |
| UAGUAGCAAUAUUACGACAA | -0.402 ± 0.15 | -0.175 ± 0.14 |
| UAGUAGCAAUAUUACGACAC | – | -1.67 ± 0.26 |
| UAGUAGCAAUAUUACGAGAA | – | -1.76 ± 0.43 |
| UAGUAGCAAUAUUACGAUCG | -0.771 ± 0.095 | 0.251 ± 0.12 |
| UAGUAGCAAUAUUACGCGCG | -0.283 ± 0.077 | -0.281 ± 0.1 |
| UAGUAGCAAUAUUACGCGCU | -1.46 ± 0.16 | -0.161 ± 0.16 |
| UAGUAGCAAUAUUACGCGUG | -1.03 ± 0.12 | -0.705 ± 0.15 |
| UAGUAGCAAUAUUACGCUGA | -2.25 ± 0.39 | -0.637 ± 0.11 |
| UAGUAGCAAUAUUACGCUUA | -1.15 ± 0.14 | -0.806 ± 0.13 |
| UAGUAGCAAUAUUACGGCAU | -2.2 ± 0.15 | -0.67 ± 0.16 |
| UAGUAGCAAUAUUACGGGCU | -1.39 ± 0.2 | -2.47 ± 0.27 |
| UAGUAGCAAUAUUACGGGGA | -2.44 ± 0.33 | -3.25 ± 0.47 |
| UAGUAGCAAUAUUACGGUAC | -3.85 ± 0.48 | – |
| UAGUAGCAAUAUUACGGUCG | -0.566 ± 0.097 | -0.103 ± 0.12 |
| UAGUAGCAAUAUUACGUAAU | -2.43 ± 0.13 | -2.19 ± 0.13 |
| UAGUAGCAAUAUUACGUCAA | -2.07 ± 0.23 | -2.44 ± 0.18 |
| UAGUAGCAAUAUUACGUCCA | -0.915 ± 0.37 | – |

| Sequence | self-splicing fitness (ln) (30 °C) | self-splicing fitness (ln) (37 °C) |
| --- | --- | --- |
| UAGUAGCAAUAUUACGUCGC | -4.1 ± 0.43 | -2.3 ± 0.28 |
| UAGUAGCAAUAUUACGUGAC | -2.58 ± 0.15 | -2.47 ± 0.18 |
| UAGUAGCAAUAUUACGUGGC | – | -2.59 ± 0.44 |
| UAUAAGCAAUAUUACGAAGU | -3.7 ± 0.35 | -2.71 ± 0.38 |
| UAUAAGCAAUAUUACGACCG | -0.137 ± 0.12 | -0.1 ± 0.16 |
| UAUAAGCAAUAUUACGAGAU | -4.28 ± 0.31 | -2.54 ± 0.28 |
| UAUAAGCAAUAUUACGCAUC | -3.74 ± 0.2 | -2.38 ± 0.17 |
| UAUAAGCAAUAUUACGCCUC | -2.74 ± 0.38 | -2.08 ± 0.36 |
| UAUAAGCAAUAUUACGCGUG | -1 ± 0.057 | -0.488 ± 0.075 |
| UAUAAGCAAUAUUACGCUAU | -3.91 ± 0.28 | -1.92 ± 0.18 |
| UAUAAGCAAUAUUACGCUCC | -1.29 ± 0.24 | -1.02 ± 0.28 |
| UAUAAGCAAUAUUACGCUUC | -3.58 ± 0.38 | – |
| UAUAAGCAAUAUUACGGAGC | – | -2.14 ± 0.28 |
| UAUAAGCAAUAUUACGGGAA | -2.77 ± 0.2 | -1.5 ± 0.18 |
| UAUAAGCAAUAUUACGGGUC | -3.27 ± 0.34 | -1.78 ± 0.24 |
| UAUAAGCAAUAUUACGGUUU | -2.58 ± 0.11 | -1.24 ± 0.099 |
| UAUAAGCAAUAUUACGUCUA | 0.561 ± 0.077 | 0.494 ± 0.1 |
| UAUAAGCAAUAUUACGUGCA | -0.333 ± 0.085 | -0.0529 ± 0.1 |
| UAUAAGCAAUAUUACGUGGC | -3.47 ± 0.32 | -2.73 ± 0.44 |
| UAUAAGCAAUAUUACGUUAG | -2.08 ± 0.14 | -0.812 ± 0.14 |
| UAUCAGCAAUAUUACGACAA | -0.495 ± 0.086 | 0.237 ± 0.097 |
| UAUCAGCAAUAUUACGACUA | 0.123 ± 0.068 | 0.517 ± 0.095 |
| UAUCAGCAAUAUUACGACUU | -0.502 ± 0.067 | -0.0466 ± 0.074 |
| UAUCAGCAAUAUUACGAGAC | -2.38 ± 0.33 | -1.75 ± 0.44 |
| UAUCAGCAAUAUUACGAGUG | -0.353 ± 0.058 | -0.197 ± 0.072 |
| UAUCAGCAAUAUUACGCAAU | -1.96 ± 0.11 | -0.74 ± 0.1 |
